Data taken from patent publication US20260258115A1 (MAPP BIOPHARMACEUTICAL, published 2026).

Experiments:
[1] = biological target: RSV postfusion F (postF), F ΔFP (Respiratory syncytial virus, UniProt P03420 26-513); assay: BLI, IgG on anti-human IgG sensor
[2] = biological target: RSV prefusion F (preF), DS-Cav1 (Respiratory syncytial virus, UniProt P03420 26-513); assay: BLI, IgG on anti-human IgG sensor, 100 nM antigen
RSV F on RSV-A2 virus = RSV F on RSV-A2 virus (Respiratory syncytial virus, RSV-A2, UniProt P03420 26-574); assay: cell-based or functional assay
[3] = biological target: RSV postfusion F (postF), F ΔFP trimer, subtype A (Respiratory Syncytial Virus, subtype A, UniProt P03420 26-513); assay: BLI, IgG (Table 9A)
[4] = biological target: RSV prefusion F (preF), DS-Cav1 stabilized trimer, subtype A (Respiratory Syncytial Virus, subtype A, UniProt P03420 26-513); assay: BLI, apparent IgG KD (Table 9A)
[5] = biological target: RSV F on RSV subtype A virus (RSV-A2) (Respiratory Syncytial Virus, subtype A, …, UniProt P03420 26-574); assay: cell-based or functional assay

Binder	binding result [1]	Kd [2]	Neutralization IC50 (RSV subtype A) (RSV F on RSV-A2 virus)	binding result [3]	Kd [4]	Neutralization - RSV A2 IC50 (pM) [5]	neut IC50 (ug/ml) subtype A (wright) [5]
ADI-36678 (antibody, V domains shown) VH: EVQLVQSGGGLVQPGGSLRVSCAASGLTVSTNYMSWVRQLPGKGLEWVSVIYSGGNTYYADSVKGRFTISRDNSKNIVYLEMNSLRIEDTAVYYCARAHLNNWFVSVTDTKDYYFDYWGQGTLVTVSS VL: SYELTQPPSVSVLPGQTASITCSGDKLGDKYASWYQQKPGQSPILVVFQDDKRPSGIPERFSGSNSGNTATLTISGTQATDEADYYCQACDRNTGVFGTGTKLTVL	no binding (tested: 100 nM antigen)	0.716 nM	0.006 µg/mL				
ADI-41590 (antibody, V domains shown) VH: EVQLVQSGGGLVKPGGSLRLSCTASGFTFSDHYMSWIRQAPGKGLEWISYISSTSSFTNYANSVKGRFTISRDNAKNSLYLQMNSLRAEDTAVYYCARDRSILYSGYSLDYWGQGTLVTVSS VL: DIQMTQSPSSLSASVGDRVTISCRASQSILNYLNWYQHKPGKAPKLLIYAASSLQSGVPSRFSGSGSGTDFTLTISGLQPEDFATYYCQQSDSTRTFGQGTKVEIK	no binding (tested: 100 nM antigen)	3.02 nM	> 25 µg/mL				
ADI-41609 (antibody, V domains shown) VH: QVQLVESGAEVKKPGASVKVSCKASGYSFTSYYMHWVRQAPGQGLEWMGVISTNGGTASYSQNFRGRVTLTRDTSTSTAYMELSSLTSEDTAVYYCVREGYCNGGSCSYFDSWGQGTLVTVSS VL: QSVLTQPPSVSGAPGQRVSISCTGSSSNIGAGYDVHWYQQLPGTAPKVLIYGNNYRPSGVPDRFSGSKSGTSASLAITGLQTEDEADYYCQSYDSRLSVVFGGGTKLTVL	no binding (tested: 100 nM antigen)	29.1 nM	> 25 µg/mL				
ADI-41809 (antibody, V domains shown) VH: QVTLKESGGGLVQPGGSLRLSCAASGFTFSNYAMSWVRQAPGKGLEWVSAISHSDSRTFYADSVKGRFTISRDNSKNTLFLQMDSLRAHDTAVYYCANVDPSSVTYYGYYYGMDVWGQGTTVTVSS VL: QSVLTQPPSASGTPGQRVTISCSGSSSNIGKNFVYWYQQFPGTAPKRLIYRNNQRPSGVPDRFSGSRSGTSASLAISGLRSEDEADYYCATWDDSLSGWVFGGGTKLTVL	no binding (tested: 100 nM antigen)	2.65 nM	> 25 µg/mL				
ADI-36677 (antibody, V domains shown) VH: QVQLVQSGGGLVQPGGSLRLSCAASGFTFSSYEMNWVRQAPGKGLEWISYISSSGDTKYYADSVKGRFTVSRDNAKYSLYLQMDSLRAEDTAVYYCASLYDSRGYYWVFDYWGQGTLVTVSS VL: DIVMTQSPSSLSASVGDRVTITCQASQDISTYLNWYQHKPGKAPNLLIYDASNLEPGVPSRFSGSGSGTDFTFTISSLQPEDIATYYCLQHDNLPPTFGQGTKVDIK				no binding	0.54 nM	144 pM	0.019 µg/mL
ADI-36672 (antibody, V domains shown) VH: EVQLVESGGGLVKPGGSLRLSCAASGFAFNNYYMNWVRQAPGKGLEWVSSISSASTYTDYADSVKGRFTISRDNAKNSLYLHLNSLRAEDTAVYYCARDYYGSGNYYNPKPLDVWGQGTTVTVSS VL: QPVLTQPPSVSGAPGQRVTISCTGSSSNIGAGYDVHWYRQFPGTAPELLIYGNTNRPSGVPDRFSGSKSGTSASLAITGLQAEDEADYYCQSYDSSLKGVFGGGTKLTVL				no binding	0.7 nM	207 pM	0.018 µg/mL
ADI-36669 (antibody, V domains shown) VH: EVQLVQSGAEVKKPGASVRVYCKASGYTFTTYYIHWVRQAPGQGLEWMGMINPSGGTTSYAQKFQGRLTMTGDTSTSTVYMELNYLRSEDTAVYYCTRDFIYFYGSGDGFDYWGQGTLVTVSS VL: EIVMTQSPSAMSASVGDRVTITCRASQGISNYLAWFQQKPGKVPKRLIYAASSLQSGVPSRFSGSGSGTEFTLTITSLQPEDFATYYCLQHNSYPFTFGPGTKVEIK				no binding	1.1 nM	111 pM	0.025 µg/mL
ADI-41567 (antibody, V domains shown, also called Ab 845; Antibody Number 845) VH: QVQLQQWGAGLLKPSETLSLTCEVYGGSFSGYYWTWFRQPPGEGLEWIGEINHSGGTNYNPSLKSRVTMSVDASINQFSLQLSSVTAADTSVYYCARGHYYNTNDFYGLFDYWGQGTLVTVSS VL: DIRLTQSPSFLSASVGDRVTITCRASQGISTYLAWYQQKPGKAPKLLLYAASTLHSGVPSRFSGSGSGTEFTLTISSLQPEDFATYYCQQLNRYPPSTFGPGTKLEIK	no binding (tested: 100 nM antigen)	0.717 nM	0.0505 µg/mL				
ADI-41601 (antibody, V domains shown, also called Ab 875; Antibody Number 875) VH: EVQLLESGGGLVKPGGSLRLSCAGSGFRFSDYYMTWIRQAPGKGLEWVSYISSSSTYTYYTDSVKGRFTVSRDNAKNSLYLQMNTLRAEDTAIYYCAISNRYDSRTFYYDYWGQGTLVTVSS VL: QSVLTQPPSVSGAPGQRVIISCTGSSSNIGAGYDVHWYQQFPGTAPKLLIYGNNNRPSGVPERFSGSKSGTSASLAITGLQADDEADYYCQSYDSLSEVVFGGGTKVTVL	no binding (tested: 100 nM antigen)	0.503 nM	> 25 µg/mL				
ADI-41578 (antibody, V domains shown, also called Ab 852; Antibody Number 852) VH: EVQLVESGGGVVQPGRSLRLSCAASGFTLSSYVMDWVRQAPGKGLEWVAVISYDGSSKYYADSVKGRFTVSRDNSNNAMYLQMNSLRAEDTAVYYCARDPYYDILTGYSYFDYWGHGTTVTVSS VL: SYVLTQPPSVSGAPRQTATITCGGNNIGSKSVNWYQQKPGQAPVLVVYDDSARPSGIPERFSGSNSGNTATLTVSSVEAGDEADYFCQVWDTSSAPYPWVFGGGTKLTVL	no binding (tested: 100 nM antigen)	0.249 nM	0.0398 µg/mL				
ADI-41191 (antibody, V domains shown) VH: QVQLVQSGAEVKRPGASVKVSCKASGYIFSHYGISWVRQAPGQGLEWMAWISAYNGNTNYAQKLQGRVTVTTDTSTSTAYMELRSLRSDDTAVYYCAREPPSLSAAATLDYWGQGTLVTVSS VL: EIVMTQSPLSLPVTLGQPASISCRSNQSLVYSDGNIYLSWFQQRPGQSPRRLIYKVSNRDSGVPDRFSGSGSGTDFTLKISRVEAEDVAVYYCMQVTHWPHEFGQGTKLEIK				no binding	0.5 nM	154 pM	0.071 µg/mL
ADI-36676 (antibody, V domains shown, also called Ab 832; Antibody Number 832) VH: EVQLLESGGGVVQPGRSLRLSCAASGFSFRNYDMHWVRQAPGKGLEWVAIISYDGSNKYADSVKGRFTISRDTSKNTLYLQMNSLRVEDTAVYYCARADSSGYYKGSEYFQHWGQGTLVTVSS VL: SYELTQLPSVSVAPGQTARITCGGNNIGTKSVQWYQHKPGQAPVLVVYDDSDRPSDIPERFSGSNSGNTATLTISRVEAGDEADYYCQVWDSSSDHYVFGTGTKLTVL [ADI-36676, listing 1 of 2 here]				no binding	0.28 nM	130 pM	0.006 µg/mL
ADI-36676 (antibody, V domains shown, also called Ab 832; Antibody Number 832) VH: EVQLLESGGGVVQPGRSLRLSCAASGFSFRNYDMHWVRQAPGKGLEWVAIISYDGSNKYADSVKGRFTISRDTSKNTLYLQMNSLRVEDTAVYYCARADSSGYYKGSEYFQHWGQGTLVTVSS VL: SYELTQLPSVSVAPGQTARITCGGNNIGTKSVQWYQHKPGQAPVLVVYDDSDRPSDIPERFSGSNSGNTATLTISRVEAGDEADYYCQVWDSSSDHYVFGTGTKLTVL [ADI-36676, listing 2 of 2 here]	no binding (tested: 100 nM antigen)	0.282 nM	0.006 µg/mL				
ADI-41790 (antibody, V domains shown) VH: QVQLVQSGAEVKKPGSSVKVSCKASGGTFSNYGISWVRQAPGQGLERLGGIIPIYGTANHAQNFQGRVTITADESTSTAYMELSSLRSEDTAVYYCARDGTFVRYYGMDVWGQGTTVTVSS VL: EIVLTQSPATLFLSPGERATLSCRASQSVSNYLAWFQQKPGQAPRLLIYDTSIRATGIPARFSGSGSGTDFTLTISSLEPEDFAFYYCQQRSNWPPTFGGGTKLEIK	no binding (tested: 100 nM antigen)	3.15 nM	> 25 µg/mL				
ADI-36673 (antibody, V domains shown, also called Ab 830; Antibody Number 830) VH: QVQLVQSGGGLVKPGGSLRLSCAASGFTFRDFYMSWIRQAPGKGLEWVSNISPSSTYTNYADSVKGRFTISRDNAKNSLYLQMNSLRAEDTAVYYCVKSEGYSSGWYDYWGQGTLVTVSS VL: QPVLTQPPSVSGAPGQRVTISCTGSSSNIGAGYDVNWYHQLPGAAPKLLIYTNSNRPSGVPDRFSGSKSGTSASLAITGLQAEDEADYYCQSYDSSLSGYVFGTGTKLTVL	no binding (tested: 100 nM antigen)	0.62 nM	0.02 µg/mL				
ADI-41591 (antibody, V domains shown, also called Ab 865; Antibody Number 865) VH: QVTLKESGGGLVKPGGSLRLSCAASGFTFSDYYMSWIRQAPGKGLEWVSYISSSSSYTNYADSVKGRFTISRDNAKNSLYLQMNSLRAEDTAVYYCAREAVAAAGTDYFDYWGQGTLVTVSS VL: QSVLTQPPSVSGAPGQRVTISCTGSSSNIGAGYDVHWYQQPPRTAPKLLIYGNSNRPSGVPDRFSGSKSGTSASLAITGLQAEDEADYYCQSYDSSLSGYVFGTGTKLTVL	no binding (tested: 100 nM antigen)	4.26 nM	> 25 µg/mL				
